# Source: patent publication US20230090114A1, “METHODS FOR PROMOTING WEIGHT LOSS” (89BIO LTD., priority 2020, published 2023)
# B1: Mutant FGF21-GalNAc-SA-PEG-20 kDa (conjugate)
# chain: MHPIPDSSPLLQFGGQVRQRYLYTDDAQQTEAHLEIREDGTVGGAADQSPESLLQLKALKPGVIQILGVKTSRFLCQRPDGALYGSLHFDPEACSFRELLLEDGYNVYQSEAHGLPLHLPGNKSPHRDPAPRGPARFLPLPGLPPALPEPPGILAPQPPDVGSSDPLSMVGPTQGASPSYAS
# Legend:
# Format in all cases: in vivo, CD-1 mice
# [1] = Body composition (minispec Analyzer, TD-NMR)
# Procedure: For body composition analyses, a minispec Analyzer (LF90II, Bruker, Germany) was used. The LF90II provides an accurate measure of the whole-body lean mass, fat mass and free fluid mass in living and vigil animals.
# Body composition was measured using a minispec Analyzer (LF90II, Bruker, Germany) one (1) day before treatment start on habituation day 7 (H7) and on treatment day 13 (T13) and treatment day 25 (T25) of Treatment days. Briefly, each mouse was placed in a red clear plastic tube sealed by a plunger. Then, the tube was inserted into the minispec Analyzer for measurement of body composition (˜ 2 min/measurement). Once the measurement completed, the mouse was removed from the plastic tube and immediately replaced into its cage. The tube and the plunger were washed and dried between each mouse. As a reminder, the Minispec analyser allows fast and precise measurements of fat tissue (g) (adipose tissue), lean tissue (g) (mainly muscles) and free fluid content (g). It should be noted that each measurement was performed just prior to a METABOpack™ session in order to normalize the respiratory exchanges-related parameters of each mouse by its lean mass (see METABOpack™ session section).
# General Methods: Naive CD-1 mice were treated subcutaneously (SC) for 4 weeks at ambient temperature with BIO89-100 at doses of 0, 0.3, 1.0 and 3.0 mg/kg (3qW×4 weeks) or with liraglutide at 0.2 mg/kg (BID×4 W; SC). BW and FC were measured daily throughout the treatment period. To investigate the impact of BIO89-100 on energy expenditure, the respiratory exchanges (VO2 and VCO2) were recorded during 3 distinct sessions of METABOpack™, a multiparametric approach allowing an automated and simultaneous recording of FC, water intake, respiratory exchanges and spontaneous activity. Meal pattern analysis was conducted on the high-resolution recordings of FC. The body composition (fat, lean and fluid masses) was analyzed 3 times during the study by the mean of Time-Domain Nuclear Magnetic Resonance (TD-NMR).
# [2] = Semi-fasted blood glucose (4 hours of fasting)
# [3] = Food intake and meal pattern (daily and METABOpack sessions)
# Source text: During the METABOpack™ sessions, animals were housed singly in the Physiocage System (Panlab/Harvard apparatus), which was composed of: • 8 physiocages (LE1301) • 8 Air tight lids for mouse (LE1303) • 8 grid floors for mouse (LE1317) • 8 Feeding bottles for mouse (LE1306) • 2 Air supply and switching units for up to 4 home cages each (LE4004FL) • 1 O2/CO2 analyzer (LE405) • 1 acquisition software suite, METABOLISM (V3.0).
# From T1 to T28, vehicle and 89BIO100 (at the 3 different doses) were administrated by subcutaneous (SC) injection three times a week, while the treatment with liraglutide was administrated by subcutaneous route, twice a day, every day. It was important to notice that the first dosing was done just before the […] (at 9:00 AM) and the second dosing was done 8 hours after the first one (at 5:00 PM). Throughout the treatment period, FI and BW were daily measured.
# In the present project, a METABOpack™ session was consisted of a 12-hour period of acclimation followed by a 48-hour period of recording of the respiratory exchanges, FI, water intake (WI) and locomotor activity of each animal.
# Following this acclimation period, the parameters cited above were automatically and simultaneously recorded for 48 hours, except for body weight that was measured manually every day.
# The METABOpack™ sessions were conducted at the start (T1-2), the middle (T14-15) and the end (T26-27) of the treatment period.
# Meal pattern analysis was performed on high-resolution recordings of food intake obtained during the METABOpack™ sessions. The Physiocage system allowed recording food intake with an accuracy of 1 measure per second and a precision of 0.02 g. The physiocages were equipped with a system allowing to precisely collect the spillage of the animals, by the mean of a platform located under the food dispenser. This platform and the spillages it contains, were permanently weighted by the system and the values added to the total weight of the food dispenser. With this system, the progressive decrease in the food dispenser net weight only reflected the food consumption of the animals. The analysis was performed by plotting data every minute. Each weight variation of the feeding container (transition from one stable value to another) was considered as a “bout”, with each bout separated from each other bout by an “inter-bout interval”. A meal consisted of at least one bout, with each meal separated from each other meal by a “post-meal interval”. For the purpose of this study, a meal was defined as any feeding episode causing a change in food weight of 0.02 g and separated by at least 5 min from any subsequent episode. Based on this criterion, the following parameters were calculated for each experimental group: […]
# [4] = BIO89-100-treated CD-1 mice, overall
# [5] = T13, three doses, vs Liraglutide
# [6] = T1, WD and NP, three doses, vs Liraglutide
# [7] = T2, WD, three doses, vs Liraglutide
# [8] = T2, WD, three doses, vs vehicle
# [9] = first meal on T14, 3 mg/kg, vs 1 mg/kg
# [10] = first meal on T14, 3 mg/kg, vs vehicle
molecule,measurement,setting,value
B1,fat mass,[1]; [4],marked decrease in fat mass
same,lean masses and body fluid,[1]; [4],without affecting
same,fat mass (g),"[1]; T13, 3 mg/kg, vs 0.3 mg/kg",significantly decreased
same,fluid mass (g),"[1]; T13, 3 mg/kg, vs 0.3 mg/kg",significantly decreased
same,lean mass (g),"[1]; T13, 3 mg/kg, vs 0.3 and 1 mg/kg",reduction in lean mass
same,fluid mass (g),"[1]; T13, 3 mg/kg, vs vehicle",significantly decreased
same,lean mass (g),"[1]; T13, 3 mg/kg, vs vehicle",significantly decreased
same,fat mass (g),"[1]; T13, 1 and 3 mg/kg, vs vehicle",reduction in fat mass
same,fat mass (g),[1]; [5],No significant difference
same,fluid mass (g),[1]; [5],No significant difference
same,lean mass (g),[1]; [5],No significant difference
same,fat mass (g),"[1]; T25, 1 and 3 mg/kg, vs vehicle",reduction in fat mass
same,fat mass (g),"[1]; T25, three doses, vs Liraglutide",No significant difference
same,delta fat mass (g),"[1]; T25 minus H7, 1 and 3 mg/kg, vs vehicle and Liraglutide",lower
same,blood glucose levels,"[2]; T3 and T16, between 89BIO-treated groups",no significant difference
same,blood glucose levels,"[2]; T3 and T16, whatever the dose, vs Liraglutide",higher blood glucose levels
same,blood glucose levels,"[2]; T3 and T16, whatever the dose, vs vehicle",did not alter
same,blood glucose levels,"[2]; T28, 3 mg/kg, vs 0.3 and 1 mg/kg",higher blood glucose levels
same,blood glucose levels,"[2]; T28, 3 mg/kg, vs vehicle",significant increase in blood glucose levels
same,blood glucose levels,"[2]; T29 (so in the source), 0.3 and 3 mg/kg, vs Liraglutide",increased
same,hypoglycemic action,"[2]; wild-type CD-1 mice, in contrast to Liraglutide (summary)",did not have a hypoglycemic action
same,mean meal size,[3]; BIO89-100-treated mice,no change
same,mean meal number,"[3]; BIO89-100-treated mice, related to increased FC",increase in mean meal number
same,cumulative food intake,"[3]; T1, 0.3 mg/kg, vs vehicle, at 5 h, 6 h, 15-24 h",increased
same,cumulative food intake,"[3]; T1, 1 mg/kg, vs vehicle, at 1 h, 3 h, 18-24 h",increased
same,cumulative food intake,"[3]; T1, 3 mg/kg, vs vehicle, 10-12 h and 14-17 h",increased
same,mean meal size,"[3]; T1, DP, 0.3 mg/kg, vs Liraglutide",increased
same,mean meal size,"[3]; T1, DP, 3 mg/kg, vs 0.3 and 1 mg/kg",decreased
same,mean meal size,"[3]; T1, DP, 3 mg/kg, vs vehicle",reduced
same,mean food intake,"[3]; T1, DP, between groups",no significant difference
same,mean food intake,"[3]; T1, NP and WD, between the three 89BIO-100 groups",No significant difference
same,mean food intake,"[3]; T1, NP and WD, whatever the dose, vs Liraglutide",increase in mean food intake
same,mean food intake,"[3]; T1, NP, 3 mg/kg, vs vehicle",higher
same,mean meal number,[3]; [6],increased
same,mean satiety ratio,[3]; [6],decreased
same,mean food intake,"[3]; T1, WD, 0.3 and 1 mg/kg, vs vehicle",increased
same,cumulative food intake,"[3]; T1, between the three 89BIO-100 groups",no significant difference
same,cumulative food intake,"[3]; T1, three doses, vs Liraglutide, 5-24 h",increase in cumulative food intake
same,cumulative food intake,"[3]; T2, 0.3 mg/kg, vs Liraglutide, at 5 h, 6 h, 10-24 h",increased
same,cumulative food intake,"[3]; T2, 1 mg/kg, vs Liraglutide, 4-24 h",increased
same,cumulative food intake,"[3]; T2, 3 mg/kg, vs 0.3 mg/kg, at 1 h and 2 h only",slightly increased
same,cumulative food intake,"[3]; T2, 3 mg/kg, vs Liraglutide, over 24 h except at 4 h",increased
same,cumulative food intake,"[3]; T2, 3 mg/kg, vs vehicle, over 24 h except at 4 h",increased
same,cumulative food intake,"[3]; T2, 0.3 and 1 mg/kg, vs vehicle, 13-24 h",increase in cumulative food intake
same,cumulative food intake,"[3]; T2, 1 vs 3 mg/kg and 0.3 vs 1 mg/kg",no significant difference
same,mean food intake,"[3]; T2, DP, between groups",no significant difference
same,mean food intake,"[3]; T2, NP and WD, between the three 89BIO-100 groups",No significant difference
same,mean food intake,"[3]; T2, NP and WD, whatever the dose, vs Liraglutide",increase in mean food intake
same,mean food intake,"[3]; T2, NP, 3 mg/kg, vs vehicle",higher
same,mean meal number,"[3]; T2, WD, 0.3 and 3 mg/kg, vs vehicle",increased
same,mean meal number,[3]; [7],increased
same,mean post-meal interval,[3]; [7],decreased
same,satiety ratio,[3]; [7],decreased
same,mean food intake,[3]; [8],increased
same,mean post-meal interval,[3]; [8],shorter
same,mean food intake,"[3]; T15, WD only, whatever the dose, vs Liraglutide",increased
same,mean food intake,"[3]; T15, WD only, whatever the dose, vs vehicle",increased
same,mean meal duration,"[3]; T27, 3 mg/kg, vs vehicle, 0.3 and 1 mg/kg groups",significant increase in mean meal duration
same,mean post-meal interval,"[3]; first meal on T14, 0.3 mg/kg, vs vehicle",reduction in mean post-meal interval
same,mean satiety ratio,"[3]; first meal on T14, 1 mg/kg, vs 0.3 mg/kg",higher
same,mean post-meal interval,"[3]; first meal on T14, 1 mg/kg, vs Liraglutide",increase in mean post-meal interval
same,mean post-meal interval,[3]; [9],reduction
same,mean satiety ratio,[3]; [9],reduction
same,mean post-meal interval,[3]; [10],decrease
same,mean satiety ratio,[3]; [10],decrease
same,mean post-meal interval,"[3]; first meal on T15, 1 mg/kg, vs Liraglutide",increase in mean post-meal interval
same,mean post-meal interval,"[3]; first meal on T15, 3 mg/kg, vs 1 mg/kg",lower
same,mean post-meal interval,"[3]; first meal on T15, 3 mg/kg, vs vehicle",decrease in mean post-meal interval
same,mean first meal latency,"[3]; first meal on T15, three doses, vs vehicle",reduced
same,mean first meal latency,"[3]; first meal on T26, 3 mg/kg, vs Liraglutide",increase in mean first meal latency
same,mean first meal latency,"[3]; first meal on T26, 0.3 and 1 mg/kg, vs vehicle",increase in mean first meal latency
same,increase in FC,"[3]; naive CD-1 mice, 0.3-3.0 mg/kg SC 3qW x 4 weeks, up to",up to +94%
same,food intake,"[3]; summary, significantly increased on T1, T2 and T15",increased
